How the values were obtained:
[1] = molecular target: T1, full-length form of the extracellular portion of DLL3 expressed on transduced RPMI-8226 cells (Homo sapiens (Human), UniProt Q9NYJ7 27-492); assay: flow cytometry, RPMI-8226 cells transduced to express full-length extracellular DLL3, fluorophore-conjugated anti-human IgG
T1 construct: also called DLL3-D1-6; DLL3+ RPMI-8226 cells
T1 sequence: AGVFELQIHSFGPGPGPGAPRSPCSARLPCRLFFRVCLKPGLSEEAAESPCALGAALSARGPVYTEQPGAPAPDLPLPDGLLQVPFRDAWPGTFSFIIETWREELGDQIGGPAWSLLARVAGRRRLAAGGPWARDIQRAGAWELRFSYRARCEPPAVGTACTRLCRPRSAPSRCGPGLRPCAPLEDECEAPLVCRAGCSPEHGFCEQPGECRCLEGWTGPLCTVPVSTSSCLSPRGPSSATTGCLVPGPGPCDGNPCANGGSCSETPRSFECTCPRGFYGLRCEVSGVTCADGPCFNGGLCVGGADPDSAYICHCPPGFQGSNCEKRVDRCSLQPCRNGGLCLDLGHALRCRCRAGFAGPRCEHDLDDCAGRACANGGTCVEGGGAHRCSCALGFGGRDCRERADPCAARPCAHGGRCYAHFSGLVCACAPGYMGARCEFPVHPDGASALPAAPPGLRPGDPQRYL
Protocol: Anti-DLL3 mAbs were diluted and incubated with DLL3⁺ RPMI-8226 cells. The cells were analyzed by flow cytometry and binding of a mAb was detected using a fluorophore conjugated anti-human IgG secondary antibody.

[2] = molecular target: T2, recombinant human DLL3 (ELISA coat) (human, UniProt Q9NYJ7 27-492); assay: ELISA, plate coated with recombinant human DLL3 0.5 µg/ml, anti-mouse IgG-HRP
T2 sequence: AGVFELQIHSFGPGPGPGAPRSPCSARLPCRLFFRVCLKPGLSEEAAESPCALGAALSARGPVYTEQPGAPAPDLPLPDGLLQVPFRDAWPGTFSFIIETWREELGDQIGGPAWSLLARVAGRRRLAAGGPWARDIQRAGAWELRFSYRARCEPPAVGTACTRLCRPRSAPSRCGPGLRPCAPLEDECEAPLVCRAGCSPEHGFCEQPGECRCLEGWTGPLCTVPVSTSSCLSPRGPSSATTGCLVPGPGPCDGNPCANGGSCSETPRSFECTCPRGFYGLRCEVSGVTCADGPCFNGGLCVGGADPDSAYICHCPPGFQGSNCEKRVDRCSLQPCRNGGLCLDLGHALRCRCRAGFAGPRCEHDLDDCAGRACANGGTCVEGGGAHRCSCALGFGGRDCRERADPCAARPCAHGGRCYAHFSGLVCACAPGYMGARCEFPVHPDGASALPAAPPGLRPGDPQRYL
Protocol: (§1) To investigate the binding of anti-DLL3 antibodies to human DLL3, wells of high binding flat-bottom plates were coated with recombinant human DLL3 diluted to 0.5 μg/ml. To assess cross-reactivity of the antibodies to DLL1/DLL4, which are closely related family members to DLL3, plates were coated with recombinant human DLL1 diluted to 1 μg/ml, or human DLL4 diluted to 0.5 μg/ml. […] Binding was detected using anti-mouse IgG-HRP and 3,3′,5,5′-Tetramethylbenzidine (TMB) substrate. Signals were normalized to the corresponding positive control antibody.
Table 38 lists the calculated EC₅₀ based on the binding data from FIG. 24.

[3] = molecular target: T3, extracellular domain (ECD) of human DLL3 (AdipoGen Life Sciences) (human, UniProt Q9NYJ7 27-492); assay: SPR (Biacore 8K), 37 C, antibody captured on anti-mouse Fc, DLL3 ECD injected, 1:1 fit
T3 construct: Bought and further purified by size exclusion chromatography; also called hDLL3 ECD; DLL3 ECD
T3 sequence: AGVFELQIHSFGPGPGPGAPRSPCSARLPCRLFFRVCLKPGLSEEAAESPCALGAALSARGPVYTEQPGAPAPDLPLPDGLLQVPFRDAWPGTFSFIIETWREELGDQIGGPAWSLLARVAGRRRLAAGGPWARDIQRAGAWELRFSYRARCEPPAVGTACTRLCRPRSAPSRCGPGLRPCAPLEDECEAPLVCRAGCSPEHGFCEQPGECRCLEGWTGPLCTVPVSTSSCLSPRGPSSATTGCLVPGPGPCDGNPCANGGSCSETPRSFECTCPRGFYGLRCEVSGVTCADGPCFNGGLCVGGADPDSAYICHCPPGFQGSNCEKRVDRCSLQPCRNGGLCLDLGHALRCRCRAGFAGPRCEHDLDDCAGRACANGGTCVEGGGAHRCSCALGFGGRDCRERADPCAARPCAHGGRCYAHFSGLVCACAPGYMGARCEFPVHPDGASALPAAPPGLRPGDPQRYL
Description: The binding kinetics of different anti-DLL3 antibodies to recombinant proteins of different domains of human DLL3 were studied by surface plasmon resonance (SPR) using a Biacore™ 8K instrument. These anti-DLL3 antibodies were produced from mouse hybridomas, and each included a heavy chain variable region and light chain variable region described herein. Briefly, antibodies recognizing human IgG Fc and antibodies recognizing mouse IgG Fc were immobilized on different channels of a Biacore™ 8K chip to allow simultaneous analysis of human and murine anti-DLL3 antibodies. Murine anti-DLL3 antibodies were captured on the anti-mouse Fc channel of the Biacore chip. The human anti-DLL3 antibody from Stemcentrx (San Francisco, Calif.) was used as a control and was captured onto anti-human Fc channel of the Biacore™ chip. Different concentrations of DLL3 ECD, DLL3 N-terminal domain, EGF2-6, EGF3-6, EGF4-6, or EGF5-6 domains of DLL3 were injected. Experiments were performed at 37° C. Biacore™ 8K evaluation software was used for all data analysis. To obtain kinetic rate constants double-referenced data were fit to a 1:1 interaction model using Biacore™ 8K Evaluation software (GE Healthcare, Marlborough, Mass.). The equilibrium binding constant KD was determined by the ratio of binding rate constants kd/kₐ.
Table 36 lists the calculated binding kinetics (KD). […] Stemcentrx anti-DLL3 antibody was used as a control.

recombinant human DLL1 = molecular target: T4, recombinant human DLL1 (human, UniProt O00548 18-540, limits assumed); assay: ELISA, plate-bound recombinant human DLL1 (1 µg/mL), anti-mouse IgG-HRP/TMB, % of positive control max
T4 sequence (looked up): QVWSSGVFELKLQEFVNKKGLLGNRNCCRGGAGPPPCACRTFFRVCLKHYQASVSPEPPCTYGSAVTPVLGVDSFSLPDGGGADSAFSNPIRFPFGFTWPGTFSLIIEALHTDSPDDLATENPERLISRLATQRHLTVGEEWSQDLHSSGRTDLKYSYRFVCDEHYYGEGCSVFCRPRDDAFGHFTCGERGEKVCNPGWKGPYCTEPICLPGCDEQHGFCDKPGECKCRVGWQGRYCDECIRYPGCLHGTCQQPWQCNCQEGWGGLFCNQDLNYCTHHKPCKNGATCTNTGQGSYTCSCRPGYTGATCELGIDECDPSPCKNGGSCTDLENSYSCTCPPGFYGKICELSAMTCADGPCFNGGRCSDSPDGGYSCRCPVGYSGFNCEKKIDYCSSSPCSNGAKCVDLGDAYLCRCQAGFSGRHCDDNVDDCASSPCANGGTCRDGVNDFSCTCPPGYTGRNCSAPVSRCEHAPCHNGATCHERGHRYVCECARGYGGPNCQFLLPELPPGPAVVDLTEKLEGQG
Protocol: as §1

B1: chimeric protein of murine 5E7 variable regions and human IgG1/Igκ constant regions (antibody, V domains shown)
VH: EVQLQQSGAELVRPGASVKLSCTASGFNIKDDYIHWVKQWPEQGLEWIGWIDSENGDTEYASKFQGKATMTADTSSNTAYLQLSGLTSEDTAVYYCTTSSYYSYDLFVYWGQGTLVTVSA
VL: DVLMTQTPLTLSVPIGQPASISCKSSQSLLHSNGKTYLNWLLQRPGQSPKLLIYLVSKLESGVPDRFSGSGSGTDFTLKISRVEAEDLGVYYCLQTTHLYTFGGGTKLEIK
notes: VH cloned onto human IgG1 CH1-CH2-CH3, VL onto human constant kappa
EC50 (read off the curve) [1]: ~3 nM

B2: anti-DLL3 antibody clone 9E6 (antibody, V domains shown)
VH: QLQLVQSGPELMRPGETVKISCKASGYTFTTYGMNWVKQAPGKGLKWVGWINTYSGVPTYADDFKGRFAFSLESSASTAFLQINNLKDEDTATYFCARFGNYGFDCWGQGTTLTVSS
VL: DIVMTQSPSSLSVSAGEKVTMSCKSSQSLLNSGNQKNYLAWYQQKPGQPPKLLIYGASTRESGVPDRFTGSGSGTDFTLTISSVQAEDLAVYYCQNDHIYPYTFGGGTKLEIK
notes: Murine antibody from a mouse hybridoma
EC50 [2]: 0.45 nM
Kd [3]: 5.11 nM
koff [3]: 0.00208 s⁻¹
kon [3]: 408000 M⁻¹ s⁻¹
binding result (recombinant human DLL1): no binding

— US20210221894A1 (DRAGONFLY THERAPEUTICS, published 2021)
